Assay results: patent US20220033501A1 (SHANGHAI PHARMAEXPLORER, published 2022)
Where a chain is given by its changes, count along the chain named.

T1: monkey TIM-3 on CHOK1 stable cell line (CHOK1-cTIM-3) (monkey)
T1 chain: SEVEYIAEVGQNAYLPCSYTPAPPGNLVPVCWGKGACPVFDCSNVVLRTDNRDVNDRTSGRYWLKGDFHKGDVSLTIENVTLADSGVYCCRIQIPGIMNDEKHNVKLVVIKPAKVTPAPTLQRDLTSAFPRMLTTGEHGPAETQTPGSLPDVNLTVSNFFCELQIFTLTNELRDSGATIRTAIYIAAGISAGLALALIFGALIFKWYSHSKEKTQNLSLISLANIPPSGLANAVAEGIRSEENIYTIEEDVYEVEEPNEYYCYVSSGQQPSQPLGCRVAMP

T2: human TIM-3 on CHOK1 stable cell line (CHOK1-hTIM-3) (human, UniProt Q8TDQ0 22-301)
T2 sequence: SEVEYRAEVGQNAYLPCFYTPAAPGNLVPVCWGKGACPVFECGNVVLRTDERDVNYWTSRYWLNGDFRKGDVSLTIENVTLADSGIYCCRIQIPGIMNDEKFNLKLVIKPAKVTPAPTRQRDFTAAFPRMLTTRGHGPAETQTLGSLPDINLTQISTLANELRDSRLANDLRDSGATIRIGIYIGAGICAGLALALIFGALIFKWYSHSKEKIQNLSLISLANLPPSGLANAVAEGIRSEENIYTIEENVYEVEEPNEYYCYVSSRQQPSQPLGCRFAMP

T3: human TIM-3 extracellular domain protein with hFc tag (hTIM-3-hFc) (human, UniProt Q8TDQ0 22-200)
T3 construct: not shown: human IgG Fc fragment (hFc) of the pCpC vector
T3 sequence: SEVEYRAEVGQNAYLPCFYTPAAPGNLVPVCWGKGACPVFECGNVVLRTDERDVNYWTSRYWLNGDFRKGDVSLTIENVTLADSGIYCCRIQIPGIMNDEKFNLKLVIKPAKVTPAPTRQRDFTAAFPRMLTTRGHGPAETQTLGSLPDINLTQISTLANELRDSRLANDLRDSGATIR

T4: monkey TIM-3 extracellular domain protein with hFc tag (cTIM-3-hFc) (monkey)
T4 construct: not shown: human IgG Fc fragment (hFc) of the pCpC vector
T4 chain: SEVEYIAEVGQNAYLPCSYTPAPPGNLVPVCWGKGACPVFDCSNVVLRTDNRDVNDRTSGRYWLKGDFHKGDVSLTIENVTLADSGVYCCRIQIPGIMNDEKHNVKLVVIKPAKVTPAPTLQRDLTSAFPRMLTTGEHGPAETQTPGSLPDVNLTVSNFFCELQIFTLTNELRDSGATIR

B1: 7A4F10 fully human TIM-3 antibody (human IgG4, kappa) (antibody, V domains shown)
VH: EVQLLESGGGLVQPGGSLRLSCAASGFTFRTHLISWVRQAPGKGLEWVAAITGSGGSTYYADSVKGRFIISRDNSKNTLFLQMNSLRAEDTAVYYCAKDGGSGSYDDFWGQGTLVTVSS
VL: ETVLTQSPVTLSLSPGERATLSCRASQSVGSYLAWYQQKPGQAPRLLIYDASNRATGIPARFSGSGSGTDFTLTISSLEPEDFAVYYCQQRSNWPPTFGQGTKVEIK
B2: 34B6D8 fully human TIM-3 antibody (human IgG4, kappa) (antibody, V domains shown)
VH: EVQLVESGGGLVQPGGSLRLSCAASGFTFSTYWMTWVRQAPGKRLEWVANIKQGGGDKYYVDSVKGRFTISTDNAKNSLYLQMNSLRAEDTAVYYCARGSNWFDPWGQGTLVTVSS
VL: EIVMTQSPATLSMSPGERATLSCRASQSVYDNLAWYQQKPGQAPRLLIYGASTRATGIPARFSGSGSGTEFTLTISSLQSEDFALYYCQQYTHWPITFGQGTRLEIK
B3: 215A8F2 fully human TIM-3 antibody (human IgG4, kappa) (antibody, V domains shown)
VH: QVQLQQWGAGLLKPSETLSLTCTVYGGSFSGYYWNWIRQPPGKGLEWLGEINHSGSTNYNPSLKRRVTISVDTSKNQFSLKLSSVTAADTAVYYCARVYYYGPFDFWGQGTLVTVSS
VL: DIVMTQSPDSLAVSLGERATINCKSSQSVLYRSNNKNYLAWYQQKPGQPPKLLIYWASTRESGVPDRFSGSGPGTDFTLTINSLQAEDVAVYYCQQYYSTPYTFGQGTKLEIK
B4: 57F4E5 fully human TIM-3 antibody (human IgG4, kappa) (antibody, V domains shown)
VH: EVQLVESGGGLVQPGGSLRLSCAASGFTFSSYWMSWVRQAPGKGLEWVANIKQDGSEKYYVDSVKGRFTISRDSAKNSLYLQMNSLRAEDTAMYFCARDSNFFDYWGQGTLVTVSS
VL: ETVMTQSPATLSVSPGERATLSCRASQSVSSNLAWYQRKPGQAPRLLIYFSSTRATGIPARFSGSGSGTEFTLTISSLQSEDFAVYYCQQYNNWPLTFGGGTKVEIK
B5: 134H3G6 fully human TIM-3 antibody (human IgG4, kappa) (antibody, V domains shown)
VH: EVQLVESGGGLVQPGGSLRLSCAASGFTFSNSWMTWVRQAPGKGLEWVANIKQAGTEKYYVDSVKGRFTISRDNAKNSLYLQMNSLRAEDTAVYYCNSGSNYFDYWGQGTLVTVSS
VL: B4 VL with T2I, S26R, S28N, V29F, S30Y, R38Q, F50G, S51A
B6: 18D2H2 fully human TIM-3 antibody (human IgG4, kappa) (antibody, V domains shown)
VH: B2 VH with G10D, K43R, R44G, G54D, G56S, D57A, I70L, T72R, N74D, P105Y
VL: B4 VL with S26N, S28N, S30Y, R38Q, F50D, S51A, I58F
B7: 39E5H1 fully human TIM-3 antibody (human IgG4, kappa) (antibody, V domains shown)
VH: B2 VH with T31S, T35S, R44G, Q53R, G56S, D57E, K58R, T72G, L79V
VL: B2 VL with I2T, T10I, M13V, D31S, P40L, G50D, L85V, T92N, H93N

Molecular target: T1, monkey TIM-3 on CHOK1 stable cell line …
Assay: FACS, CHOK1-cTIM-3 cells, 0 nM antibody

| Mean fluorescence intensity | Binder |
| --- | --- |
| 2.8 | B1 |
| 2.9 | B2 |
| 2.8 | B3 |
| 2.9 | B4 |
| 2.9 | B5 |
| 2.8 | B6 |
| 3 | B7 |

Molecular target: T2, human TIM-3 on CHOK1 stable cell line …
Assay: FACS, CHOK1-hTIM-3 cells, 0.064 nM antibody

| Mean fluorescence intensity | Binder |
| --- | --- |
| 28.8 | B1 |
| 22.2 | B2 |
| 20.5 | B3 |
| 23.7 | B4 |
| 34.5 | B5 |
| 32.9 | B6 |
| 27 | B7 |

Molecular target: T3, human TIM-3 extracellular domain …
Assay: ELISA, coated human TIM-3 ECD protein, 66.667 nM antibody

| OD450 | Binder |
| --- | --- |
| 3.02 | B1 |
| 3.1 | B2 |
| 3.08 | B3 |
| 3.06 | B4 |
| 2.77 | B5 |
| 2.78 | B6 |
| 3.01 | B7 |

Molecular target: T4, monkey TIM-3 extracellular domain …
Assay: ELISA, coated monkey TIM-3 ECD protein, 6.6667 nM antibody

| OD450 | Binder |
| --- | --- |
| 3.12 | B1 |
| 3.39 | B2 |
| 3.28 | B3 |
| 3.29 | B4 |
| 3.19 | B5 |
| 3.3 | B6 |
| 3.35 | B7 |
